Results: patent US20120045395, “MicroRNAs In Idiopathic Pulmonary Fibrosis” (UNIVERSITY OF PITTSBURGH - OF THE COMMONWEALTH SYSTEM OF …, published 2012)

Target: SMAD3 (UniProt P84022 P84022:1-425)
Experiment: EMSA; 5 mM MgCl2, 200 mM NaCl, pH 7.6, poly(dI-dC), room temperature; band diminished by unlabeled competitor; probe described as upstream of the predicted site …
Details: tags: full length, Santa Cruz Biotechnology; label: 5'-Cy5
Description: Electrophoretic Mobility Shift Assay (EMSA): Cultured A549 cells at 60-70% confluence were treated with 2 ng/mL recombinant human TGFβ₁ (R&D Systems) for 60 minutes. Nuclear proteins were isolated using a standard rapid micropreparation technique described at Andrews N. C. and Faller D. V. Nucleic acids research (1991); 19:2499). The supernatant was reserved and snap frozen in liquid nitrogen as the nuclear protein fraction. Nuclear extracts and recombinant full length SMAD3 protein (Santa Cruz Biotechnology, Santa Cruz, Calif.) were incubated with 5′-end Cyanine-5 labeled probe and/or non-labeled competitor oligonucleotide for 20 minutes at room temperature in a binding buffer consisting of 20% glycerol, 5 mM MgCl₂, 2.5 mM EDTA, 25 mM DTT, 200 mM NaCl, 50 mM Tris HCl pH 7.6, and 0.25 mg/mL poly(dI-dC). The complementary oligonucleotides (5′-[…]-3′ (SEQ ID NO: 3), 5′-[…]-3′ (SEQ ID NO: 4)) were synthesized by Integrated DNA Technologies (Coralville, Iowa), and consisted of a sequence upstream of the predicted SMAD3/let7d binding site (GGCTGAGTA (SEQ ID NO:5)). […] The protein/DNA complexes were run on a 6% native polyacrylamide gel and visualized on a Typhoon imaging and documentation system using Cyanine-5 dye excitation and fluorescence settings.

SMAD3, sequence (P84022 whole entry, one chain of several): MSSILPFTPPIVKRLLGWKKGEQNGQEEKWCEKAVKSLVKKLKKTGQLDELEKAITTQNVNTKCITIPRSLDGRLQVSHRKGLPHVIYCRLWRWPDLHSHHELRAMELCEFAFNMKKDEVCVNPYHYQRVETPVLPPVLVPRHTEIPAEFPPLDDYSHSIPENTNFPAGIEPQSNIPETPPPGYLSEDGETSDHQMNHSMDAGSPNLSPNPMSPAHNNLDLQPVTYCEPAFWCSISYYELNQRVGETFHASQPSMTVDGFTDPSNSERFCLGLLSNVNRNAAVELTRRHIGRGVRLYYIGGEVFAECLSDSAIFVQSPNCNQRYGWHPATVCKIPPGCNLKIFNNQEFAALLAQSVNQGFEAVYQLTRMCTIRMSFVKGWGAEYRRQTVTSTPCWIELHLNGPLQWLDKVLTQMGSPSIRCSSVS

B1: let-7d promoter EMSA probe (dsDNA)
DNA 1: GATAATTAAATGTTAAAAGTCAGC
DNA 2: GCTGACTTTTAACATTTAATTATC
- binding result: binds
